Consider four molecules from paper doi:10.1101/2023.01.19.524784 (bioRxiv, 2023).

Changes are numbered by the printed parent chain. Names may count otherwise. Bounds are passed on as bounds.

Assay [1] addresses T1, SARS-CoV-2 receptor binding domain (RBD), wild type (SARS-CoV-2, wild type (Wuhan), UniProt P0DTC2). As to the kind of experiment: cell-based or functional assay.
Assay [2] deals with T2, SARS-CoV-2 Omicron BA.1 RBD (SARS-CoV-2, Omicron BA.1, strain). As to the kind of experiment: cell-based or functional assay.
The target of assay [3] is T1, SARS-CoV-2 receptor binding domain …. The experiment in a line: BLI.
The target in assay [4] is SARS-CoV-2 Delta variant RBD (SARS-CoV-2, Delta (B.1.617.2), strain). As to the kind of experiment: BLI.
The target in assay [5] is T2, SARS-CoV-2 Omicron BA.1 RBD. The experiment in a line: BLI.
In assay [6] the target is SARS-CoV-2 Beta variant RBD (SARS-CoV-2, Beta (B.1.351), strain). As to the kind of experiment: BLI.

B1: 25F9 (antibody, V domains shown)
VH: EVQLVESGGGLVQPGGSLRLSCSASGFRFSDYWINWVRQAPGKGLEWVGFIKTKADFGTPAYAESVKGRFSISRDDSKNTVYLQMNSLKTEDTAVYYCTRDRGILEWLIIEAGWFDVWGPGVLVTVSS
VL: QSVLTQPPSASGAPGQRVTISCTGSSSNIGAGHYVSWYQQLPGTAPKLLIHENDKRPSGVSDRFSGSRSGASASLTITGLQSGDEADYYCSVWDRSLNTLFGGGTRVTVL
B1: the “IC50 of neutralization of authentic SARS-CoV-2 D614G” value in assay [1] was 6 ng/mL. Moreover, the “IC50 of neutralization of authentic SARS-CoV-2 BA.1” value (“IC50 … of authentic SARS-CoV-2 BA.1” for short) in assay [2] is 42 ng/mL. Besides, the Kd in assay [3], in assay [4], in assay [5] and in assay [6] was less than 0.666 pM throughout.

B2: 21B6 (antibody, V domains shown)
VH: EVRLVESGGGLVQPGGSLRLSCAASGFTFSDYYISWVRQAPGRGPEWVGFIRNVLYRGTTEYAPSVKGRFIISRDDSRAIASLQMNGLKADDTAVYYCALGASGTDRDWFDVWGPGVLVTVSS
VL: DIQMTQSPSSLSASVGDTVTITCRASQDISNSLAWYQQKPGKAPKALIYYASNLESGVPSRFSGSGSGTDFTLTISSLQPEDFATYYCQQHNNYPFTFGPGTKVDIK
Consider B2, for which, in assay [2], the “IC50 … of authentic SARS-CoV-2 BA.1” value was determined as 11 ng/mL. Besides, the Kd in assay [3], in assay [4], in assay [5] and in assay [6] was less than 0.666 pM throughout.

B3: 20A7 (antibody, V domains shown)
VH: DVQLVESGGGLVKPGGSLRLSCVASGFTFSNSEMHWVRQAPGKGLEWVSVISESGETTHYADSVKGRFTISRDNANNLLLLQMNSLRADDTAVYYCTRYNWNNRVYALDSWGQGVVVTVSS
VL: EIVLTQSPATLSLSPGEGASLSCRASQTVIGSLAWYQQKPGQAPRLLIYGASSRATGIPDRFSGSGSGTDFTLTISSLEPEDFAVYYCQQYGNWPLTFGPGTRLDIR
Regarding B3, the “IC50 … of authentic SARS-CoV-2 BA.1” value in assay [2] was determined as 6 ng/mL. For the same molecule, the Kd in assay [3], in assay [4], in assay [5] and in assay [6] was less than 0.666 pM in each case.

B4: 20A7-VH E33V (antibody, V domains shown)
VH: B3 VH with E33V
VL: B3 VL
Turning to B4, the “fold reduction of binding against 20A7” value in assay [3] was approximately 300 fold.
